Laboratory results from the supplement of paper PMC9732359.
± gives the uncertainty stated by the source.

Assay: protein stability index of a GFP-peptide fusion (yeast GPS) (PSI 1-4); higher = more stable; sorted into four equal gates, so the index is relative within each strain
Procedure, shortened: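 Tiled 17-residue peptides from yeast proteins were fused downstream of GFP on a plasmid that also expresses Cherry, and the pooled library was carried in yeast. Mid-log cultures grown in leucine-free medium were sorted into four equal gates by GFP/Cherry fluorescence ratio. Plasmids from each gate were PCR-amplified and Illumina-sequenced, and reads were assigned to strains by barcodes. Each peptide's protein stability index is the sum, over gates, of the gate's read frequency multiplied by its gate number.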

## AAAYSHELPRYGITHGL [RPL5]
doa10∆
  protein stability index: 2.64 ± 0.081
pdr5∆
  protein stability index: 2.93 ± 0.064
san1∆
  protein stability index: 2.98 ± 0.052
ubr1∆
  protein stability index: 2.96 ± 0.074

## AAGANVDNVWADVYAKA [RPP1B]
doa10∆
  protein stability index: 3.2 ± 0.096
pdr5∆
  protein stability index: 3.16 ± 0.14
san1∆
  protein stability index: 2.77 ± 0.14
ubr1∆
  protein stability index: 2.96 ± 0.12

## AAKIIYLAHEDNKEKDF [PRE10]
doa10∆
  protein stability index: 2.81 ± 0.19
pdr5∆
  protein stability index: 3.18 ± 0.098
san1∆
  protein stability index: 3.25 ± 0.11
ubr1∆
  protein stability index: 3.01 ± 0.23

## AALGEVASMELKPTNDM [SIR2]
doa10∆
  protein stability index: 3.46 ± 0.13
pdr5∆
  protein stability index: 3.33 ± 0.12
san1∆
  protein stability index: 3.52 ± 0.067
ubr1∆
  protein stability index: 3.17 ± 0.13

## AALIASKVYYNLGEYES [RPN2]
doa10∆
  protein stability index: 1.88 ± 0.077
pdr5∆
  protein stability index: 1.6 ± 0.066
san1∆
  protein stability index: 1.33 ± 0.067
ubr1∆
  protein stability index: 1.69 ± 0.051

## AAPPSTNFEILNEMLNT [DIS3]
doa10∆
  protein stability index: 2.9 ± 0.078
pdr5∆
  protein stability index: 2.83 ± 0.11
san1∆
  protein stability index: 2.95 ± 0.075
ubr1∆
  protein stability index: 3.04 ± 0.061

## AAPSAADIKAVVESVGA [RPP2B]
doa10∆
  protein stability index: 3.08 ± 0.1
pdr5∆
  protein stability index: 3.06 ± 0.073
san1∆
  protein stability index: 3.05 ± 0.094
ubr1∆
  protein stability index: 3.29 ± 0.084

## AASAAGYDRHITIFSPE [SCL1]
doa10∆
  protein stability index: 2.86 ± 0.11
pdr5∆
  protein stability index: 2.76 ± 0.075
san1∆
  protein stability index: 2.87 ± 0.064
ubr1∆
  protein stability index: 2.95 ± 0.051

## ACSSSGRETILSNFNAD [SIR3]
doa10∆
  protein stability index: 2.39 ± 0.037
pdr5∆
  protein stability index: 2.16 ± 0.04
san1∆
  protein stability index: 2.44 ± 0.045
ubr1∆
  protein stability index: 2.75 ± 0.042

## ADAQIQRETYDSNESDD [YLR335W/NUP2]
doa10∆
  protein stability index: 2.07 ± 0.22
pdr5∆
  protein stability index: 3.38 ± 0.21
ubr1∆
  protein stability index: 2.66 ± 0.21

## ADCQAELTKTKSSLYSA [YIL149C/MLP2]
doa10∆
  protein stability index: 2.6 ± 0.055
pdr5∆
  protein stability index: 2.59 ± 0.055
san1∆
  protein stability index: 2.46 ± 0.069
ubr1∆
  protein stability index: 2.23 ± 0.045

## ADEDDEDAKYVINLKQI [RPT1]
doa10∆
  protein stability index: 1.99 ± 0.13
pdr5∆
  protein stability index: 2.66 ± 0.16
san1∆
  protein stability index: 1.8 ± 0.2
ubr1∆
  protein stability index: 2.61 ± 0.085

## ADESKMAKLNECPLDPG [RET1]
doa10∆
  protein stability index: 2.64 ± 0.083
pdr5∆
  protein stability index: 2.74 ± 0.095
san1∆
  protein stability index: 2.85 ± 0.082
ubr1∆
  protein stability index: 2.08 ± 0.079

## ADINKNFLSVITNKHQE [RPN2]
doa10∆
  protein stability index: 1.93 ± 0.074
pdr5∆
  protein stability index: 2.11 ± 0.06
san1∆
  protein stability index: 1.84 ± 0.087
ubr1∆
  protein stability index: 1.71 ± 0.057

## ADKKDDSESNSEPIDLI [ITC1]
doa10∆
  protein stability index: 3.05 ± 0.079
pdr5∆
  protein stability index: 3.32 ± 0.087
san1∆
  protein stability index: 3.02 ± 0.12
ubr1∆
  protein stability index: 3.35 ± 0.081

## ADNKEDVKKPFSFGTSQ [YLR335W/NUP2]
doa10∆
  protein stability index: 3.42 ± 0.1
pdr5∆
  protein stability index: 3.09 ± 0.096
san1∆
  protein stability index: 2.75 ± 0.16
ubr1∆
  protein stability index: 3.13 ± 0.099

## ADNSGARNLYIIAVKGS [RPL23A]
doa10∆
  protein stability index: 1.55 ± 0.049
pdr5∆
  protein stability index: 1.63 ± 0.055
san1∆
  protein stability index: 1.33 ± 0.11
ubr1∆
  protein stability index: 1.53 ± 0.057

## ADNTKDKEKEENNDDAL [MED4]
doa10∆
  protein stability index: 2.86 ± 0.14
pdr5∆
  protein stability index: 3.04 ± 0.11
san1∆
  protein stability index: 2.98 ± 0.078
ubr1∆
  protein stability index: 3.16 ± 0.082

## ADVFRRCLVAVIQQDKY [SRP72]
doa10∆
  protein stability index: 1.6 ± 0.11
pdr5∆
  protein stability index: 2.17 ± 0.066
san1∆
  protein stability index: 1.86 ± 0.1
ubr1∆
  protein stability index: 2.74 ± 0.18

## ADVSIKSILQEIRRSLS [POP5]
doa10∆
  protein stability index: 1.59 ± 0.08
pdr5∆
  protein stability index: 2.66 ± 0.083
san1∆
  protein stability index: 2.44 ± 0.14
ubr1∆
  protein stability index: 1.32 ± 0.06

## ADVTHFVKPGTALDAEG [DIS3]
doa10∆
  protein stability index: 2.9 ± 0.094
pdr5∆
  protein stability index: 3.33 ± 0.2
san1∆
  protein stability index: 3.04 ± 0.076
ubr1∆
  protein stability index: 3.08 ± 0.081

## AEDVALNEQVKKFFLNN [NAS6]
doa10∆
  protein stability index: 2.12 ± 0.058
pdr5∆
  protein stability index: 2.18 ± 0.069
san1∆
  protein stability index: 2.11 ± 0.067
ubr1∆
  protein stability index: 2.04 ± 0.068

## AEEAAAEEEEESDDDMG [RPP0]
doa10∆
  protein stability index: 3.62 ± 0.12
pdr5∆
  protein stability index: 2.94 ± 0.15
san1∆
  protein stability index: 3.23 ± 0.056
ubr1∆
  protein stability index: 3.27 ± 0.068

## AEEAIVNAMRVLYYRDA [PRE4]
pdr5∆
  protein stability index: 3.33 ± 0.17
san1∆
  protein stability index: 2.73 ± 0.2

## AEEFDFNVPVVSKQLGN [YAR002W/NUP60]
doa10∆
  protein stability index: 2.47 ± 0.18
pdr5∆
  protein stability index: 1.35 ± 0.17
san1∆
  protein stability index: 1.28 ± 0.14
ubr1∆
  protein stability index: 1.14 ± 0.11

## AEEIGVEHLLRDVRDQA [RPN8]
doa10∆
  protein stability index: 3.2 ± 0.14
san1∆
  protein stability index: 2.96 ± 0.15

## AEFKKENLADLDYQIGN [LIN1]
doa10∆
  protein stability index: 3.29 ± 0.086
pdr5∆
  protein stability index: 3.32 ± 0.068
san1∆
  protein stability index: 3.24 ± 0.057
ubr1∆
  protein stability index: 3.26 ± 0.071
